Tests used:
[1] = biological target: T1, 人GUCY2C-Fc蛋白 (human, UniProt P25092 24-430); assay: indirect ELISA, GUCY2C-Fc coated at 1 ug/mL, HRP anti-mouse IgG
T1 construct: extracellular domain; not shown: human IgG1 Fc at the C-terminus

[2] = biological target: T2, 人GUCY2C-His蛋白 (human, UniProt P25092 24-430); assay: ELISA, GUCY2C-His coated at 0.1 ug/mL, HRP anti-mouse secondary (Table 3)
T2 construct: extracellular domain

[3] = biological target: T3, 人GUCY2C on cells (人结肠癌细胞CW2; GUCY2C过表达肿瘤细胞CW2-GCC#1) (human, UniProt P25092 24-1073); assay: flow cytometry on CW2 human colon cancer cells, PE anti-mouse secondary
T3 construct: whole, on cells; the gene put into CW2-GCC#1 is only called GUCY2C
T3 sequence (P25092 24-1073): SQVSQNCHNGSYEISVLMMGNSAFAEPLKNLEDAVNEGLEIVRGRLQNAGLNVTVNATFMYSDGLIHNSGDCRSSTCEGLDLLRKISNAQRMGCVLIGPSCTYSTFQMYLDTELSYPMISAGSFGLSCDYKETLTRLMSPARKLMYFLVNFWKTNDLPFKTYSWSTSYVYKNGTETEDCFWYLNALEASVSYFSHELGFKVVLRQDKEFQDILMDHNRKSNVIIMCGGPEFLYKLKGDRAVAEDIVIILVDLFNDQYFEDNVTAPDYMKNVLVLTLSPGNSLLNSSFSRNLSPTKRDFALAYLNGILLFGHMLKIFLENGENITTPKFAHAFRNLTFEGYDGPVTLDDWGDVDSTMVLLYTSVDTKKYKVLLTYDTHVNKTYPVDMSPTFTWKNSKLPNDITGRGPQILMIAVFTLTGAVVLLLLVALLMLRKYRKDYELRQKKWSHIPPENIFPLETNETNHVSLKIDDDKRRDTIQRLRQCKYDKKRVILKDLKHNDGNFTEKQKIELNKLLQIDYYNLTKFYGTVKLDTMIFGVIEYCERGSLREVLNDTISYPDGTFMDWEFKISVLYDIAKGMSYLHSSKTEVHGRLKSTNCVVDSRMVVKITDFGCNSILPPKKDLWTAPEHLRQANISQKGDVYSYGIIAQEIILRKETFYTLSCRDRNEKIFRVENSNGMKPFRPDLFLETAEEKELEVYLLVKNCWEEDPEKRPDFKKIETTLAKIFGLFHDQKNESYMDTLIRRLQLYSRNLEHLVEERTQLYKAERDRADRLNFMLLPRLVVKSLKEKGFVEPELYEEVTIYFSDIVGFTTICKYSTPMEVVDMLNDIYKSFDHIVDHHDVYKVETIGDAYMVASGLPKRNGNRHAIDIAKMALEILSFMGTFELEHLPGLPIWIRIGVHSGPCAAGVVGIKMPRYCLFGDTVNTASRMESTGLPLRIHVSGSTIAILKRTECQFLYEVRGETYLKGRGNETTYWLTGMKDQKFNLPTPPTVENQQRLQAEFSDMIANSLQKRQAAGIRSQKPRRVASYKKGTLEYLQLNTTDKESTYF

T2 sequence (P25092 other isoform, or with tags, fused parts or gaps): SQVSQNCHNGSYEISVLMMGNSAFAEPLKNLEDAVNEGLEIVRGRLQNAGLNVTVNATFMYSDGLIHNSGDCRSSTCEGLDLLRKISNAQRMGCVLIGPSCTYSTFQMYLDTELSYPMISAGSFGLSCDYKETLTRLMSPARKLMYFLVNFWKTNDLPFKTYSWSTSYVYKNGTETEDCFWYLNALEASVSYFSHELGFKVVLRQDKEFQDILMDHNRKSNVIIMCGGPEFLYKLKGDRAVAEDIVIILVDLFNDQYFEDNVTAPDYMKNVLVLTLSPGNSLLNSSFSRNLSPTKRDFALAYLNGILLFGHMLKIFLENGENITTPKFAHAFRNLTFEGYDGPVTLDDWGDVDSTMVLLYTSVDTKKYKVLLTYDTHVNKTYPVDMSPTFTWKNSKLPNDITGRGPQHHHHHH
T1 sequence (P25092 24-430): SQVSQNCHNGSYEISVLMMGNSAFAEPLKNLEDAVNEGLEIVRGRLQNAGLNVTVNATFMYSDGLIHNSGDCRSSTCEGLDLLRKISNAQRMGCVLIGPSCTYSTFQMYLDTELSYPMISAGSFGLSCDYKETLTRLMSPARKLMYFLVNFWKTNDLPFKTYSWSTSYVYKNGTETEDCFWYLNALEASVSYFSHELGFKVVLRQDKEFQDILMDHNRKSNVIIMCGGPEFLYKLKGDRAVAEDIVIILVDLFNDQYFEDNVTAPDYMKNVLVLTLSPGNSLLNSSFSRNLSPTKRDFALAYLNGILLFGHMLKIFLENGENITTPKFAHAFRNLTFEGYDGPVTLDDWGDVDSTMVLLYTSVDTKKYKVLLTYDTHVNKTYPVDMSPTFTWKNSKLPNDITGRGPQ

EC50 [1]: 0.0215 µg/mL
EC50 [2]: 0.12 nM
EC50 [3]: 6.27 µg/mL
B1: 55G7A7H2 (antibody, V domains shown)
VH: QVQLQQSGADLARPGASVKMSCKASGYTFTSYTMHWVKQRPGQGLEWIGYINPSSGYTNYNQKFQDKATLTADKSSSTAYMQLSSLTSEDSAVYYCARLGRIGVYWGQGTTLTVSS
VL: QIVLSQSPAILSAFPGEKVTLTCRASSSVSFIHWYQQKPGSSPKPWIYATSNLASGVPDRFSGSGSGTSFSFTISRVEAEDAATYYCQQWSSNPWTFGGGTKLEIK

Source: patent publication CN116284407A (SUNSHINE GUOJIAN PHARMACEUTICAL SHANGHAI CO LTD, dated 2023)
